Laboratory results: patent US20210403578A1 (Stanford University, published 2021)

Target: T1, Fz8-CRD (UniProt Q9H461 32-151, limits assumed, fluorescence-conjugated)
T1 construct: domain: CRD; also called Fzd8-CRD; frizzled (Fz8-CRD)
T1 sequence (looked up): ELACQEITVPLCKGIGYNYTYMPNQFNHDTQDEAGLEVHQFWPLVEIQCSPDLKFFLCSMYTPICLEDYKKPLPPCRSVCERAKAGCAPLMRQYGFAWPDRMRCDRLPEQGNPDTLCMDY
Experiment: yeast surface display with fluorescence-conjugated Fz8-CRD
Excerpt: Fz27 was expressed in a construct enabling binding to be confirmed via yeast surface display using fluorescence-conjugated Fz8-CRD.

B1: uncharacterized protein Bh1478 from Bacillus halodurans (other)
chain: MDVQRVGKAGLHRVDSKKQQTAAGVSFSEVMGKQRDEKAYERLQALMSKIDDQGKLLSETRTIEELRKYKELVKEFVGDAVELGLRLEERRGFNRRGRTKIYKIVKEVDRKLLDLTDAVLAKEKKGLDILNMVGEIKGLLINIYA
notes: also called 2QUP; wild-type scaffold
Does B1 bind?
Result: no binding
